Starred links: 1 amine or outer side, 2 acyl side, 3 side chain; linkers in the order of their positions; H or OH if unused. Positions of bridges follow the written chain, without caps; N, C: chain ends. Non-standard residues stand in square brackets, D forms with d. Primed or numbered codes have the meaning given here. PyrS2(3) = (S)-3-amino-1-((pent-4-en-1-yloxy)carbonyl)pyrrolidine-3-carboxylic acid, stapling residue, C=CCCCOC(=O)N1CC[C@@](N[*:1])(C(=O)[*:2])C1; PyrS2″ = (S)-3-amino-1-((pent-4-en-1-yloxy)carbonyl)pyrrolidine-3-carboxylic acid (stapling residue), C=CCCCOC(=O)N1CC[C@@](N[*:1])(C(=O)[*:2])C1; B5(16) = 2-amino-2-(pent-4-en-1-yl)hept-6-enoic acid = 2,2-bis(4-pentenyl)glycine (stitching residue), C=CCCCC(CCCC=C)(N[*:1])C(=O)[*:2]; B5(4) = 2,2-bis(4-pentenyl)glycine = 2-amino-2-(pent-4-en-1-yl)hept-6-enoic acid (stitching residue), C=CCCCC(CCCC=C)(N[*:1])C(=O)[*:2]; TfeGA = (S)-2-amino-3-((carboxymethyl)(2,2,2-trifluoroethyl)amino)propanoic acid, O=C([C@H](CN(CC(=O)[*:3])CC(F)(F)F)N[*:1])[*:2]; PyrS2 = (S)-3-amino-1-((pent-4-en-1-yloxy)carbonyl)pyrrolidine-3-carboxylic acid, C=CCCCOC(=O)N1CC[C@@](N[*:1])(C(=O)[*:2])C1; B5(3) = 2,2-bis(4-pentenyl)glycine (stitching residue), C=CCCCC(CCCC=C)(N[*:1])C(=O)[*:2]; B5″ = 2,2-bis(4-pentenyl)glycine, stitching residue, C=CCCCC(CCCC=C)(N[*:1])C(=O)[*:2]; B5 = 2-amino-2-(pent-4-en-1-yl)hept-6-enoic acid, C=CCCCC(CCCC=C)(N[*:1])C(=O)[*:2]; Phe(2-Cl) = N[C@@H](Cc1ccccc1Cl)C(=O)O; Bta = N[C@@H](Cc1csc2ccccc12)C(=O)O; αAllylPro = C=CC[C@@]1(C(=O)O)CCCN1; tBuAla = CC(C)(C)C[C@H](N)C(=O)O; 3Thi = N[C@@H](Cc1ccsc1)C(=O)O; S8 = C=CCCCCCC[C@](C)(N)C(=O)O; hSer = N[C@@H](CCO)C(=O)O
Legend:
[1] = target: T1, Bcat-Halo (UniProt P35222 1-781, HaloTag NanoBRET 618 Ligand bound in the assay); test: NanoBRET Abs IC50 in HEK293 cells; competitor TCF4-Luc on Bcat-Halo
T1 construct: Expressed by transfection in HEK293 cells; also called beta-catenin HaloTag NanoBRET construct; not shown: HaloTag
T1 sequence (looked up): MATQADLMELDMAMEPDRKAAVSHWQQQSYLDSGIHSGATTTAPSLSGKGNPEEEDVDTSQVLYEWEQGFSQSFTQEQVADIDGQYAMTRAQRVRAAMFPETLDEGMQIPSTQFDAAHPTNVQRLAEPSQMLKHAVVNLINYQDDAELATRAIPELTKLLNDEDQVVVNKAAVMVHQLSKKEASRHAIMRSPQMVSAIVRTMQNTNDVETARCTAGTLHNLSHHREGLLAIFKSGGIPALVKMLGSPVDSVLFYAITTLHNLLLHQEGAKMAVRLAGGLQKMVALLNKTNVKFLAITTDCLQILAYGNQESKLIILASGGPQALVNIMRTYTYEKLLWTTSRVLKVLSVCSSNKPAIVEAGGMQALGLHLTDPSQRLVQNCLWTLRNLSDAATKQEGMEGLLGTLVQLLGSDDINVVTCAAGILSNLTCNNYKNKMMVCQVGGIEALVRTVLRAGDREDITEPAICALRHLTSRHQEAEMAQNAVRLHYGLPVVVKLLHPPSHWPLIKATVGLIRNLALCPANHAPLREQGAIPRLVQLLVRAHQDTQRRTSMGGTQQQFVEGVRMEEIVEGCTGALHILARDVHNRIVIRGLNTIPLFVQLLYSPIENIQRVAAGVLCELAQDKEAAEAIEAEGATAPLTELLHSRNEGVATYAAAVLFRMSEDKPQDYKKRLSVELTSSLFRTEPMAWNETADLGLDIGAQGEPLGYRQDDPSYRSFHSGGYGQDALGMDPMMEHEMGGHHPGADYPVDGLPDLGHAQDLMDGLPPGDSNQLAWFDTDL

[2] = target: T2, full-length beta-Catenin (Uniprot ID P35222) (Homo sapiens (Human), UniProt P35222 2-781); test: fluorescence polarization competition vs 5FAM-TCF4(10-53) on full-length beta-catenin
T2 construct: also called bCat; B-Catenin
T2 sequence: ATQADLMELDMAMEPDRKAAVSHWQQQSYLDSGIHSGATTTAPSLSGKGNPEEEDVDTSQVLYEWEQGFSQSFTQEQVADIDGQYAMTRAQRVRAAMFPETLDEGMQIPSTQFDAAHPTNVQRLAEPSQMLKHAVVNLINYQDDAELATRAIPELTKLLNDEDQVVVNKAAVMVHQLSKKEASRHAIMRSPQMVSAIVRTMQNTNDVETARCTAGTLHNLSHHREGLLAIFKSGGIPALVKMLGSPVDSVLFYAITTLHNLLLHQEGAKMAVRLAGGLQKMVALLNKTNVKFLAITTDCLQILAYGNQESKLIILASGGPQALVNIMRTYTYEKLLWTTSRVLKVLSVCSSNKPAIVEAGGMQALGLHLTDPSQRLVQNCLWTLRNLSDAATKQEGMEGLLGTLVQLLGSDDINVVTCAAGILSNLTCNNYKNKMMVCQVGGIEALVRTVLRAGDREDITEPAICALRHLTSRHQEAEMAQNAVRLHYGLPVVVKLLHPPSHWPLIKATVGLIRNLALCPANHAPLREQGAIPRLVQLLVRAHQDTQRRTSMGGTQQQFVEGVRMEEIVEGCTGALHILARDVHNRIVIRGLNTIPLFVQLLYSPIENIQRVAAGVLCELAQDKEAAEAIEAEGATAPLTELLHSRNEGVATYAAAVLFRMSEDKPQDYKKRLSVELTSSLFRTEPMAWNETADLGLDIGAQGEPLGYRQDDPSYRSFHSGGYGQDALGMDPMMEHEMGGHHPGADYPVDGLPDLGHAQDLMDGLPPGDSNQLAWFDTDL
Procedure: (§1) The plate was incubated protected from light for 60 minutes at 20° C. prior to read. Reads were performed on a CLARIOstar plate reader (BMG Labtech) in duplicate, and data were fitted to a 1:1 binding model with hill slope using an in-house script. All provided concentrations are final concentrations.

[3] = target: T3, beta-catenin in TCF/LEF luciferase reporter cells (Homo sapiens (Human), UniProt P35222 1-781); test: cell-based or functional assay
T3 sequence: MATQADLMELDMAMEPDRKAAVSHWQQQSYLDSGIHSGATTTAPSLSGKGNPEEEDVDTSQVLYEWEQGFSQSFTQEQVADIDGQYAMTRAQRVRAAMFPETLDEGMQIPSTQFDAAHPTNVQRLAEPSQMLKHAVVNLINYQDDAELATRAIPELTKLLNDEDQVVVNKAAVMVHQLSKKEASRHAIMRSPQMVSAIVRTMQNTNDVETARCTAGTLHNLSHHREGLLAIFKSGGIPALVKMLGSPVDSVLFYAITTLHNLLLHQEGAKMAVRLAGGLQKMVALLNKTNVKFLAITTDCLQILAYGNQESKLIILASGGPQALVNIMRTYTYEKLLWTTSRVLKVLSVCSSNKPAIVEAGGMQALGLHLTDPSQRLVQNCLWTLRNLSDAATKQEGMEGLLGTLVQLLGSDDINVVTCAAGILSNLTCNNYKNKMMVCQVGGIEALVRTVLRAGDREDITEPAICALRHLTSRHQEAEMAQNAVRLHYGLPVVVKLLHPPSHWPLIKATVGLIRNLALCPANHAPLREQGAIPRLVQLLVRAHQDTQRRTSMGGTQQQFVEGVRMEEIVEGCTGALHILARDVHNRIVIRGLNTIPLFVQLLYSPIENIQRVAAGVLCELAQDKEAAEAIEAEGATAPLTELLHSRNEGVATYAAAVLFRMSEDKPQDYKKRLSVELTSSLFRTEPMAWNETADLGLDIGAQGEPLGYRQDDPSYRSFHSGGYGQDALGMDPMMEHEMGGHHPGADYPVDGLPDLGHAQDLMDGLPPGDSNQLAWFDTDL

[4] = target: T4, full-length beta-Catenin (Uniprot ID P35222) (Homo sapiens (Human), UniProt P35222 2-781); test: AlphaScreen competition; peptide titrated against full-length beta-catenin + biotin-TCF4(10-53)
T4 construct: The assay protocols say only 'full-length'; No tag is stated, although the AlphaScreen kit is a Histidine (Nickel Chelate) kit; also called B-Catenin; bCat
T4 sequence: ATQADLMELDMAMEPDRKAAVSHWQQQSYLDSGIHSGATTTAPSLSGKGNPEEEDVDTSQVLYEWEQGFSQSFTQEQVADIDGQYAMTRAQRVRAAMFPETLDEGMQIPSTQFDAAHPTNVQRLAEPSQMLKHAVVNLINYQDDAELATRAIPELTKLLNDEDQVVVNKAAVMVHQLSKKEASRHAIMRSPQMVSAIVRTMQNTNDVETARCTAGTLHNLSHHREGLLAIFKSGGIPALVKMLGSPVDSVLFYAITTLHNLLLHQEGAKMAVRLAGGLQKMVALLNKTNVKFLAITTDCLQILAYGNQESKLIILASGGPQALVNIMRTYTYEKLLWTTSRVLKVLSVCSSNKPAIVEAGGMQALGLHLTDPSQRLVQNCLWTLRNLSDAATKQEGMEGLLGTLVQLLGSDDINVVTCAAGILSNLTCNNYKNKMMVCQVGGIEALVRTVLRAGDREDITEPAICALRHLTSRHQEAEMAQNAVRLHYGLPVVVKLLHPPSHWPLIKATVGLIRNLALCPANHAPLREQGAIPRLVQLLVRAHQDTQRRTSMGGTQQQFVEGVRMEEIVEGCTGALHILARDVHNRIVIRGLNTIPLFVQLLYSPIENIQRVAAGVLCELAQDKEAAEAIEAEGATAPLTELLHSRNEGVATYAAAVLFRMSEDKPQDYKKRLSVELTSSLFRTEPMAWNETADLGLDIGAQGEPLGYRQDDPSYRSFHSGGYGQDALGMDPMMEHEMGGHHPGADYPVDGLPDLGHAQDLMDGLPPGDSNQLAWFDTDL
Procedure: as §1, with “Equal volume of the titrated peptide was added to the” for “The”, “and” for “was”, “incubated for 15 minutes at 20° C. Then 4 uL of donor and 4 uL acceptor beads at 10 ug/mL were added to the plate, for a 16 uL reaction pool and” for “incubated”

B1: I-1142 (peptide)
peptide: Ac-[αAllylPro]DF[B5]DDAAFS[PyrS2][Phe(2-Cl)][Bta][dT]-NH2
modifications: staple 1-4, 4-11
notes: Stapled (stitched) peptide composition; olefin isomer not specified
- IC50 [1]: > 20000 nM
- IC50 [2]: 22 nM

B2: I-1156 (peptide)
peptide: Ac-[αAllylPro]DF[B5(4)]DDLAFT[PyrS2″][Phe(2-Cl)][Bta]S-NH2
modifications: staple 1-4, 4-11
notes: as for B1
- IC50 [1]: 26100 nM
- IC50 [2]: 14 nM

B3: I-1155 (peptide)
peptide: Ac-[αAllylPro]DF[B5(16)]DDLLFS[PyrS2″][Phe(2-Cl)][Bta]Q-NH2
modifications: staple 1-4, 4-11
notes: as for B1
- IC50 [2]: 60 nM

B4: I-1153 (peptide)
peptide: Ac-[αAllylPro]DF[B5(16)]DDLAFS[PyrS2″][Phe(2-Cl)][Bta]Q-NH2
modifications: staple 1-4, 4-11
notes: as for B1
- IC50 [1]: > 20000 nM
- IC50 [2]: 12 nM

B5: I-1154 (peptide)
peptide: Ac-[αAllylPro]DF[B5(16)]DDALFS[PyrS2″][Phe(2-Cl)][Bta]Q-NH2
modifications: staple 1-4, 4-11
notes: as for B1
- IC50 [2]: 45 nM

Binder: Ac-[αAllylPro]D[tBuAla][B5″]D[TfeGA]AAFN[PyrS2(3)][3Thi][Bta]Q-NH2 (staple 1-4, 4-11) [I-762]
- TCF Reporter Assay Abs IC50 (uM), peptide + ST-Protein [3]: 0.3 µM
- TCF Reporter Assay Abs IC50 (uM), peptide only [3]: 7 µM

Binder: Ac-[αAllylPro]D[tBuAla][B5(3)]D[TfeGA]AAFL[PyrS2][3Thi][Bta]Q-NH2 (staple 1-4, 4-11) [I-849]
- TCF Reporter Assay Abs IC50 (uM), peptide + ST-Protein [3]: 0.2 µM
- TCF Reporter Assay Abs IC50 (uM), peptide only [3]: 5 µM

B6: I-1157 (peptide)
peptide: Ac-[αAllylPro]DF[B5(4)]DDALFT[PyrS2″][Phe(2-Cl)][Bta]S-NH2
modifications: staple 1-4, 4-11
notes: as for B1
- IC50 [1]: > 20000 nM
- IC50 [2]: 36 nM

B7: I-348 (peptide)
peptide: XAAXDDAAFVXFWQ
modifications: not fully specified; N-terminal Ac; C-terminal NH2; PL3 at 1, B5 at 4, S8 at 11 (stapled 1-4 and 4-11)
notes: Stapled peptide composition; Earlier-eluting isomer composition; also called Ac-PL3-Ala-Ala-B5-Asp-Asp-Ala-Ala-Phe-Val-S8-Phe-Trp-Gln-NH2
- EC50 [4]: 10000 nM

B8: I-349 (peptide)
peptide: XAAXDDAAFVXFWQ
modifications: not fully specified; N-terminal Ac; C-terminal NH2; PL3 at 1, B5 at 4, S8 at 11 (stapled 1-4 and 4-11)
notes: Stapled peptide composition; Later-eluting isomer composition; also called Ac-PL3-Ala-Ala-B5-Asp-Asp-Ala-Ala-Phe-Val-S8-Phe-Trp-Gln-NH2
- EC50 [4]: 7190 nM

Binder: Ac-[αAllylPro]D[tBuAla][B5(3)]D[TfeGA]AAFT[PyrS2″][Phe(2-Cl)][Bta]Q-NH2 (staple 1-4, 4-11) [I-922]
- TCF Reporter Assay Abs IC50 (uM), peptide + ST-Protein [3]: 0.2 µM
- TCF Reporter Assay Abs IC50 (uM), peptide only [3]: 5 µM

Binder: Ac-[αAllylPro]D[tBuAla][B5(3)]D[TfeGA]AAF[hSer][PyrS2″][Phe(2-Cl)][Bta][hSer]-NH2 (staple 1-4, 4-11) [I-993]
- TCF Reporter Assay Abs IC50 (uM), peptide + ST-Protein [3]: 0.2 µM
- TCF Reporter Assay Abs IC50 (uM), peptide only [3]: 5 µM

B9: I-351 (peptide)
peptide: XDAXADAAFVXFWQ
modifications: not fully specified; N-terminal Ac; C-terminal NH2; PL3 at 1, B5 at 4, S8 at 11 (stapled 1-4 and 4-11)
notes: Stapled peptide composition; Later-eluting isomer composition; also called Ac-PL3-Asp-Ala-B5-Ala-Asp-Ala-Ala-Phe-Val-S8-Phe-Trp-Gln-NH2
- EC50 [4]: 10000 nM

B10: I-352 (peptide)
peptide: Ac-[αAllylPro]DA[B5(16)]DAAAFV[S8]FWQ-NH2
modifications: staple 1-4, 4-11
notes: Stapled peptide composition; also called Ac-PL3-Asp-Ala-B5-Asp-Ala-Ala-Ala-Phe-Val-S8-Phe-Trp-Gln-NH2
- EC50 [4]: 377 nM

From patent publication US20240116985A1 (published 2024)
